According to US20050182242A1, “Global analysis of protein activities using proteome chips” (priority 2001, published 2005):

B1: Pyc1p: pyruvate carboxylase 1 homolog with conserved biotin-attachment region (protein, UniProt P11154 1-1178, looked up)
Pyruvate carboxylase 1: MSQRKFAGLRDNFNLLGEKNKILVANRGEIPIRIFRTAHELSMQTVAIYSHEDRLSTHKQKADEAYVIGEVGQYTPVGAYLAIDEIISIAQKHQVDFIHPGYGFLSENSEFADKVVKAGITWIGPPAEVIDSVGDKVSARNLAAKANVPTVPGTPGPIETVEEALDFVNEYGYPVIIKAAFGGGGRGMRVVREGDDVADAFQRATSEARTAFGNGTCFVERFLDKPKHIEVQLLADNHGNVVHLFERDCSVQRRHQKVVEVAPAKTLPREVRDAILTDAVKLAKECGYRNAGTAEFLVDNQNRHYFIEINPRIQVEHTITEEITGIDIVAAQIQIAAGASLPQLGLFQDKITTRGFAIQCRITTEDPAKNFQPDTGRIEVYRSAGGNGVRLDGGNAYAGTIISPHYDSMLVKCSCSGSTYEIVRRKMIRALIEFRIRGVKTNIPFLLTLLTNPVFIEGTYWTTFIDDTPQLFQMVSSQNRAQKLLHYLADVAVNGSSIKGQIGLPKLKSNPSVPHLHDAQGNVINVTKSAPPSGWRQVLLEKGPAEFARQVRQFNGTLLMDTTWRDAHQSLLATRVRTHDLATIAPTTAHALAGRFALECWGGATFDVAMRFLHEDPWERLRKLRSLVPNIPFQMLLRGANGVAYSSLPDNAIDHFVKQAKDNGVDIFRVFDALNDLEQLKVGVDAVKKAGGVVEATVCFSGDMLQPGKKYNLDYYLEIAEKIVQMGTHILGIKDMAGTMKPAAAKLLIGSLRAKYPDLPIHVHTHDSAGTAVASMTACALAGADVVDVAINSMSGLTSQPSINALLASLEGNIDTGINVEHVRELDAYWAEMRLLYSCFEADLKGPDPEVYQHEIPGGQLTNLLFQAQQLGLGEQWAETKRAYREANYLLGDIVKVTPTSKVVGDLAQFMVSNKLTSDDVRRLANSLDFPDSVMDFFEGLIGQPYGGFPEPFRSDVLRNKRRKLTCRPGLELEPFDLEKIREDLQNRFGDVDECDVASYNMYPRVYEDFQKMRETYGDLSVLPTRSFLSPLETDEEIEVVIEQGKTLIIKLQAVGDLNKKTGEREVYFDLNGEMRKIRVADRSQKVETVTKSKADMHDPLHIGAPMAGVIVEVKVHKGSLIKKGQPVAVLSAMKMEMIISSPSDGQVKEVFVSDGENVDSSDLLVLLEDQVPVETKA
B2: SPS1: yeast GST-HisX6 fusion protein on proteome chip (protein, UniProt P08458 1-490, looked up)
Sporulation-specific protein 1: MESKEISIRSRTPPSKLYSIQSCIGRGNFGDVYKAVDRVTQEIVAIKVVNLEHSDEDIELLAQEIFFLAELKSPLITNYIATMLEDVSMWIVMEYCGGGSCSDLLKRSYVNGLPEEKVSFIIHEVTLGLKYLHEQRKIHRDIKAANILLNEEGMVKLGDFGVSGHIRSTLKRDTFVGTPYWMAPEVVCCEVDGYNEKADIWSLGITTYELLKGLPPLSKYDPMKVMTNLPKRKPPKLQGPFSDAAKDFVAGCLVKTPADRPSAYNLLSFEFVKNITITNLKSDVDLIKQKKVQERYTKVPKYPLQNRLYKNSNTVRGKEFWNFESTRLSTTQISKEELSPITQDSPTSSLNMESPYLLHGQTVTPITNPSSSSFRKCTQPVFELDSGMDIDSGCPNAQAETEIVPLSNHNKKHKKNDIQALKIEKFDYLKNIVSHILNRMYDRARDDETRKYVNEMLKQFIKTEANVPGFNEVFIEEISLRIEAIKKGFV
modifications: GST-His6 fusion tag
notes: yeast GST-HisX6 fusion protein on proteome chip

How the values were obtained:
[1] = target: T1, Cy3-labeled streptavidin (Streptomyces avidinii, UniProt P22629); assay: Yeast proteome chip probed with Cy3-labeled streptavidin alone; format: binding
T1 construct: purchased Jackson IR, USA
T1 sequence (P22629 25-183): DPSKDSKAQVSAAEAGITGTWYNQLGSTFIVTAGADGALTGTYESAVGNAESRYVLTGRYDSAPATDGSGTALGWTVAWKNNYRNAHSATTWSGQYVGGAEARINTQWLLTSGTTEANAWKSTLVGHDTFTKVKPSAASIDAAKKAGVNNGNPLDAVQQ
From the text: To test for protein-protein interactions, the yeast proteome was probed with calmodulin (11). Calmodulin is a highly conserved calcium-binding protein involved in many calcium-regulated cellular processes and has many known physical partners (Hook et al., 2001, Annu. Rev. Pharmacol. Toxicol. 41:471). The calmodulin probe was biotinylated, and bound probe was detected using Cy3-labeled streptavidin. As a control, the yeast proteome was probed with Cy3-labeled streptavidin alone.
In addition to the calmodulin-binding targets, one protein, Pyc1p, which bound Cy3 -labeled streptavidin, was also identified. Pyc1p encodes a pyruvate carboxylase 1 homolog that contains a highly conserved biotin-attachment region (Menendez et al., 1998, Yeast 14:647). Thus, as predicted by its sequence, Pyc1p is biotinylated in vivo; and was identified in all experiments using streptavidin detection methods. Thus, proteome microarrays can be used to identify posttranslational modifications of proteins.

[2] = test system: PI(4)P liposomes; assay: Yeast proteome chip probed with PI(4)P liposomes; conditions: liposome binding signal on yeast proteome chip, Cy3-streptavidin detection
[3] = test system: PI(3)P liposomes; assay: Yeast proteome chip probed with PI(3)P liposomes; conditions: liposome binding signal on yeast proteome chip, Cy3-streptavidin detection
[4] = test system: PI(3,4,5)P3 liposomes; assay: Yeast proteome chip probed with PI(3,4,5)P3 liposomes; conditions: liposome binding signal on yeast proteome chip, Cy3-streptavidin detection
[5] = test system: phosphatidylcholine (PC) liposomes; assay: Yeast proteome chip probed with PC liposomes; conditions: liposome binding signal on yeast proteome chip, Cy3-streptavidin detection
Outline: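 Binding of arrayed yeast proteins to sonicated PC liposomes, with or without 5% (w/w) phosphoinositide, is scored by streptavidin fluorescence on the biotinylated lipid tracer.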

[6] = test system: PI(4,5)P2 liposomes; assay: Yeast proteome chip probed with PI(4,5)P2 liposomes; conditions: liposome binding signal on yeast proteome chip, Cy3-streptavidin detection
[7] = test system: PI(3,4)P2 liposomes; assay: Yeast proteome chip probed with PI(3,4)P2 liposomes; conditions: liposome binding signal on yeast proteome chip, Cy3-streptavidin detection
[8] = test system: six different liposomes; assay: Reverse membrane assay: proteins spotted on nitrocellulose probed with six liposomes; format: binding; conditions: HRP-conjugated streptavidin
Procedure: B. A reverse assay was carried out to test for protein-lipid interactions. The proteins were prepared and spotted onto nitrocellulose filters in a dilution series and probed with the six different liposomes. As a control, the six liposomes were also added to the BSA-blocked membrane. After extensive washing, the bound liposomes were detected using an HRP-conjugated streptavidin and an ECL kit.
C. Linear correlation between the binding signals and the amounts of Rim15p in a membrane assay. When liposome-binding signals of Rim15p from the membrane assay (FIG. 4B) were plotted against the concentration gradient of the spotted Rim15p, the binding signals of PI(4)P, PI(3,4)P2, PI(3)P, and PI(4,5)P2 correlated linearly with the amounts of Rim15p.
Therefore, six proteins, i.e., Rim15p, Eno2p, Hxk1p, Sps1p, Yg1059wp, and Gcn2p, were further tested for phosphoinositol binding using two types of standard assays (Williamson, 2000, Nat. Struct Biol. 7(10):834-7). For Rim15p, Eno2p, and Hxk1p, PI(4,5)P2 liposomes were first adhered to a nitrocellulose membrane, which was then blocked by BSA; different amounts of the GST fusion proteins and a GST control were used to probe the membrane, and bound proteins were detected using anti-GST antibodies. […] The bound liposomes were detected using a horseradish peroxidase (“HRP”)-conjugated streptavidin.

Row | Molecule | binding of Cy3-labeled streptavidin [1] | PI(4)P [2] | PI(3)P [3] | PI(3, 4, 5)P3 [4] | PC [5] | PI(4, 5)P2 [6] | PI(3, 4)P2 [7] | liposome binding in reverse membrane assay [8]
1 | B1 | bound |  |  |  |  |  |  | 
2 | B2 |  | 246.92 | 88.50 | 389.70 | 557.02 | 358.84 | 1147.50 | bound all five phosphoinositol-containing liposomes nearly equally
